Patent publication US6943279B1, “Amino polyol amine oxidase polynucleotides and related polypeptides and methods of use” (priority 1999, dated 2005)
Like-named read-outs stand apart in the source and are kept apart here.

Tests used:
APAO enzyme = assay type: biochemical, Exophiala spinifera
Protocol: The following assay was used to determine the substrate specificity of the APAO enzyme. […] The APAO enzyme was recombinant enzyme produced,as GST fusion in E. coli, purified over a glutathione affinity column and cleaved with thrombin to remove the GST. All components were mixed at room temperature. The initial rate was determined in a spectrophotometer at 572 nm over one minute by absorbance units/second (BLANK). Ten microliters of APAO at 70 ug/ml was added and mixed. The initial rate was again determined at 572 nm over one minute in absorbance units/second (SAMPLE). The rates were converted to absorbance units/minute. The BLANK value was subtracted from the SAMPLE value. The absorbance units were converted to μM H2O2 wherein 1 μM H2O2 equals 0.138 absorbance units at pH 8.0.

APAO = APAO activity of crude cell-free extract, TLC; assay type: biochemical, Exophiala spinifera; settings: for modification by the crude extract: crude cell-free extract of induced Exophiala spinifera, TLC
Protocol: For analysis of APAO activity, an alternative method was used. Equal volumes of sample and ^14C-AP1 (1 mg/ml, pH 8, 50 mM sodium phosphate) were incubated at room temperature for one to six days. Analytical thin-layer chromatography was then carried out on C60 HPK silica gel plates (Whatman #4807-700; 10×10 cm; 0.2 mm thick). After application of from 0.1 to 2 μl of aqueous sample, the plates were air-dried and developed in CHCl3:MeOH:CH3COOH:H20 (55:36:8:1). Plates were then air dried, and exposed to Phosphorlmager screen (Molecular Dynamics) or autoradiographic film. A Storm™ Phosphorlmager (Molecular Dynamics) was used to scan the image produced on the screen.
A cell-free extract that contains the deaminase activity was obtained by subjecting substrate-induced Exophiala spinifera cells to disruption using a Bead Beater™ in 50 mM Na-phosphate, pH 8.0, and recovering the cell-free supernatant by centrifugation and 0.45 micron filtration. Catabolic activity is assayed by incubating extracts with AP1 (hydrolyzed fumonisin BI backbone) or “^4C-labelled AP1 with the extract and evaluating by TLC on C18 or C60 silica. […] Other amine-containing substrates were tested for modification by the crude extract. […] Preparative amounts of the product, named 2-OP, have also been purified and analyzed by C13 nmr.

[1] = Mutated APAO lysates from E coli, Amplex Red assay, substrate AP1; assay type: biochemical
Protocol: The following assay was used to determine the substrate specificity of the APAO enzyme. Reaction mix: 436 μl of 200 mM Na-phosphate, pH8.0; 50 μl substrate (10 mM); 2 μl Amplex Red (1 mg in 200 μl DMSO); and 2 μof Peroxidase (5000 U/ml). The APAO enzyme was recombinant enzyme produced,as GST fusion in E. coli, purified over a glutathione affinity column and cleaved with thrombin to remove the GST. All components were mixed at room temperature. The initial rate was determined in a spectrophotometer at 572 nm over one minute by absorbance units/second (BLANK). Ten microliters of APAO at 70 ug/ml was added and mixed. The initial rate was again determined at 572 nm over one minute in absorbance units/second (SAMPLE). The rates were converted to absorbance units/minute. The BLANK value was subtracted from the SAMPLE value. The absorbance units were converted to μM H2O2 wherein 1 μM H2O2 equals 0.138 absorbance units at pH 8.0.
The APAO molecules mutated at specific cysteines were tested in a bacterial expression system using the previously described Amplex Red assay. The results can be seen in the table below entitled “Cys(−) APAO lysates from E. coli.” The mutated APAO molecules can then be tested in maize, linked to a signal peptide, as previously described. Either one of the cysteines or two or three together could be mutated to serines without any measured loss in APAO enzyme activity of the E coli-expressed enzyme. […] The mutated versions of APAO operably linked to a signal sequence, which retain function when expressed as recombinant fusion proteins in E. coli may also provide additional stability or foldability when expressed in plants or other secretion expression systems.

[2] = as above; assay type: biochemical; settings: Glyc(−) APAO lysates from E coli
[3] = Mutated APAO lysates from E coli, Amplex Red assay, substrate FB1; assay type: biochemical
[4] = 0.5 mg/mL substrate, pH 8.0, room temperature
[5] = 1 mM substrate, pH 8.0, room temperature
[6] = Cys(−) APAO lysates from E coli
[7] = Triple Cys(−) APAO lysates from E coli
[8] = Glyc(−) APAO lysates from E coli

CCCC[C@@H](C)[C@@H](OC(=O)C[C@@H](CC(=O)O)C(=O)O)[C@H](C[C@@H](C)CCCCCCCC[C@H](O)[C@H](C)N)OC(=O)C[C@@H](CC(=O)O)C(=O)O [Fumonisin B4]
RATE (APAO enzyme; [4]): 0.1728 μM H2O2/min

NCCc1ccc(O)c(O)c1 [dopamine]
RATE (APAO enzyme; pH 8): 0.0040 μM H2O2/min

NCCCNCCCCNCCCN [spermine]
RATE (APAO enzyme; pH 8): 0.0002 μM H2O2/min

CCCCCCCCCCCCCC[C@@H](O)[C@@H](O)[C@@H](N)CO [phytosphingosine]
modification by the crude extract (APAO): apparently not modified

CCCC[C@@H](C)[C@@H](OC(=O)C[C@@H](CC(=O)O)C(=O)O)[C@H](C[C@@H](C)C[C@H](O)CCCCCC[C@H](O)[C@H](C)N)OC(=O)C[C@@H](CC(=O)O)C(=O)O [Fumonisin B3]
RATE (APAO enzyme; [5]): 0.1449 μM H2O2/min

CNC[C@H](O)c1ccc(O)c(O)c1 [epinephrine]
RATE (APAO enzyme; pH 8): 0.0071 μM H2O2/min

CCCCCCCCCCCCC/C=C/[C@@H](O)[C@@H](N)CO [sphingosine]
modification by the crude extract (APAO): apparently not modified

CCCC[C@@H](C)[C@@H](OC(=O)C[C@@H](CC(=O)O)C(=O)O)[C@H](C[C@@H](C)CCCCCC[C@@H](O)C[C@H](O)[C@H](C)N)OC(=O)C[C@@H](CC(=O)O)C(=O)O [Fumonisin B2]
RATE (APAO enzyme; [4]): 0.3058 μM H2O2/min

CCCCCCCCCCCCCCC[C@@H](O)[C@@H](N)CO [sphinganine]
modification by the crude extract (APAO): apparently not modified

NC[C@H](O)c1ccc(O)c(O)c1 [norepinephrine]
RATE (APAO enzyme; [5]): 0.0087 μM H2O2/min

B1: APAO: amino polyol amine oxidase from Exophiala spinifera, ATCC 74269 (SEQ ID NO: 23) (protein, listed as Exophiala spinifera)
chain: MALAPSYINPPNVASPAGYSHVGVGPDGGRYVTIAGQIGQDASGVTDPAYEKQVAQAFANLRACLAAVGATSNDVTKLNYYIVDYAPSKLTAIGDGLKATFALDRLPPCTLVPVSALSSPEYLFEVDATALVPGHTTPDNVADVVVVGAGLSGLETARKVQAAGLSCLVLEAMDRVGGKTLSVQSGPGRTTINDLGAAWINDSNQSEVSRLFERFHLEGELQRTTGNSIHQAQDGTTTTAPYGDSLLSEEVASALAELLPVWSQLIEEHSLQDLKASPQAKRLDSVSFAHYCEKELNLPAVLGVANQITRALLGVEAHEISMLFLTDYIKSATGLSNIFSDKKDGGQYMRCKTGMQSICHAMSKELVPGSVHLNTPVAEIEQSASGCTVRSASGAVFRSKKVVVSLPTTLYPTLTFSPPLPAEKQALAENSILGYYSKIVFVWDKPWWREQGFSGVLQSSCDPISFARDTSIDVDRQWSITCFMVGDPGRKWSQQSKQVRQKSVWDQLRAAYENAGAQVPEPANVLEIEWSKQQYFQGAPSAVYGLNDLITLGSALRTPFKSVHFVGTETSLVWKGYMEGAIRSGQRGAAEVVASLVPAA
AP1 catabolic activity after heating (APAO; following 30 min. at 65° C. or 100° C.): no AP1 catabolic activity remained | activity on intact FB1 (APAO; partially purified APAO enzyme from Exophiala spinifera): little or no activity | Conclusion [1, 6]: Active (wild type) | M H2O2/min [1, 6]: 2.14 μM H2O2/min | Conclusion [1, 7]: Active (wild type) | M H2O2/min [1, 7]: 1.16 μM H2O2/min | Conclusion [2]: Active (wild type) | M H2O2/min [2]: 1.92 μM H2O2/min | activity on intact FB1 and other B-series fumonisins (APAO enzyme; recombinant APAO enzyme expressed in E. coli): significant but reduced activity | Conclusion [3, 6]: Slightly active (wt) | M H2O2/min [3, 6]: 0.11 μM H2O2/min | Conclusion [3, 8]: Slightly active (wt) | M H2O2/min [3, 8]: 0.12 μM H2O2/min | Conclusion [3, 7]: Slightly active (wt) | M H2O2/min [3, 7]: 0.27 μM H2O2/min

B2: C359S, C461S: APAO mutated at both cysteines 359 and 461 (SEQ ID NO: 51), plasmid PHP16738 (protein)
chain: KDNVADVVVVGAGLSGLETARKVQAAGLSCLVLEAMDRVGGKTLSVQSGPGRTTINDLGAAWINDSNQSEVSRLFERFHLEGELQRTTGNSIHQAQDGTTTTAPYGDSLLSEEVASALAELLPVWSQLIEEHSLQDLKASPQAKRLDSVSFAHYCEKELNLPAVLGVANQITRALLGVEAHEISMLFLTDYIKSATGLSNIFSDKKDGGQYMRCKTGMQSISHAMSKELVPGSVHLNTPVAEIEQSASGCTVRSASGAVFRSKKVVVSLPTTLYPTLTFSPPLPAEKQALAENSILGYYSKIVFVWDKPWWREQGFSGVLQSSSDPISFARDTSIDVDRQWSITCFMVGDPGRKWSQQSKQVRQKSVWDQLRAAYENAGAQVPEPANVLEIEWSKQQYFQGAPSAVYGLNDLITLGSALRTPFKSVHFVGTETSLVWKGYMEGAIRSGQRGAAEVVASLVPAA
modifications: Cys (-) APAO; removal of cys 359 and 461 (Exophiala spinifera)
Conclusion [1, 6]: Fully/More Active | M H2O2/min [1, 6]: 3.90 μM H2O2/min | Conclusion ([1]; Cys(−) APAO lysates from E coli, listed as C359S+C461S): more APAO activity in crude lysates than wild type enzyme | Conclusion [3, 6]: Slightly active | M H2O2/min [3, 6]: 0.16 μM H2O2/min

B3: C461S: APAO mutated at cysteine 461 (SEQ ID NO: 49), plasmid PHP16737 (protein)
chain: KDNVADVVVVGAGLSGLETARKVQAAGLSCLVLEAMDRVGGKTLSVQSGPGRTTINDLGAAWINDSNQSEVSRLFERFHLEGELQRTTGNSIHQAQDGTTTTAPYGDSLLSEEVASALAELLPVWSQLIEEHSLQDLKASPQAKRLDSVSFAHYCEKELNLPAVLGVANQITRALLGVEAHEISMLFLTDYIKSATGLSNIFSDKKDGGQYMRCKTGMQSICHAMSKELVPGSVHLNTPVAEIEQSASGCTVRSASGAVFRSKKVVVSLPTTLYPTLTFSPPLPAEKQALAENSILGYYSKIVFVWDKPWWREQGFSGVLQSSSDPISFARDTSIDVDRQWSITCFMVGDPGRKWSQQSKQVRQKSVWDQLRAAYENAGAQVPEPANVLEIEWSKQQYFQGAPSAVYGLNDLITLGSALRTPFKSVHFVGTETSLVWKGYMEGAIRSGQRGAAEVVASLVPAA
modifications: Cys (-) APAO; removal of cysteine 461 (Exophiala spinifera)
Conclusion [1, 6]: Fully Active | M H2O2/min [1, 6]: 2.25 μM H2O2/min | Conclusion [3, 6]: Slightly active | M H2O2/min [3, 6]: 0.14 μM H2O2/min

B4: C167S, C359S, C461S: triply Cys-mutated version of APAO (SEQ ID NO: 53), plasmid PHP17089 (protein)
chain: KDNVADVVVVGAGLSGLETARKVQAAGLSSLVLEAMDRVGGKTLSVQSGPGRTTINDLGAAWINDSNQSEVSRLFERFHLEGELQRTTGNSIHQAQDGTTTTAPYGDSLLSEEVASALAELLPVWSQLIEEHSLQDLKASPQAKRLDSVSFAHYCEKELNLPAVLGVANQITRALLGVEAHEISMLFLTDYIKSATGLSNIFSDKKDGGQYMRCKTGMQSISHAMSKELVPGSVHLNTPVAEIEQSASGCTVRSASGAVFRSKKVVVSLPTTLYPTLTFSPPLPAEKQALAENSILGYYSKIVFVWDKPWWREQGFSGVLQSSSDPISFARDTSIDVDRQWSITCFMVGDPGRKWSQQSKQVRQKSVWDQLRAAYENAGAQVPEPANVLEIEWSKQQYFQGAPSAVYGLNDLITLGSALRTPFKSVHFVGTETSLVWKGYMEGAIRSGQRGAAEVVASLVPAA
modifications: Cys (-) APAO; removal of cys 169, 359, and 461 (Exophiala spinifera)
Conclusion [1, 6]: Slightly active | M H2O2/min [1, 6]: 0.27 μM H2O2/min | Conclusion [1, 7]: Slightly Active | M H2O2/min [1, 7]: 0.27 μM H2O2/min | Conclusion [3, 6]: Slightly active | M H2O2/min [3, 6]: 0.25 μM H2O2/min | Conclusion [3, 7]: Slightly active | M H2O2/min [3, 7]: 0.26 μM H2O2/min
